T1: GST-Elp1 CTD (Saccharomyces cerevisiae) (UniProt Q06706)
T1 sequence: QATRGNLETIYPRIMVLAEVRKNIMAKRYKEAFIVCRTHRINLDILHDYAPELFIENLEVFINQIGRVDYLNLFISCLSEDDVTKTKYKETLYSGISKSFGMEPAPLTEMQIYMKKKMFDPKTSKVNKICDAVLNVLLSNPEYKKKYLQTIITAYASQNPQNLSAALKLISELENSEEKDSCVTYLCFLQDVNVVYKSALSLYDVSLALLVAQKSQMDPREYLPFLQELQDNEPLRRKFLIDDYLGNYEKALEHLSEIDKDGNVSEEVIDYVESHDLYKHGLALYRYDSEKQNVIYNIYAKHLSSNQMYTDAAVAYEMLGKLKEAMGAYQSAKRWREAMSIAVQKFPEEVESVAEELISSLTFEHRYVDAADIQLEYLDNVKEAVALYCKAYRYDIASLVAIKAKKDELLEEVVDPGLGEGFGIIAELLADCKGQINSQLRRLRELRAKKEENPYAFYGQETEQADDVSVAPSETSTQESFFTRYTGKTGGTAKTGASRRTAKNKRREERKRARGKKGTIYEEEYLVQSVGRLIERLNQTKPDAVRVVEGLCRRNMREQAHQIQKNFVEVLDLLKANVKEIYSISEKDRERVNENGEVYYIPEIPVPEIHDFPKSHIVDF

B1: Elp5-3HA (HA-tagged Elp5 subunit of Elongator) (natural protein)
chain: MASSSHNPVILLKRILSLTESSPFILCLDSIAQTSYKLIQEFVHQSKSKGNEYPIVYISFETVNKPSYCTQFIDATQMDFVHLVKQIISYLPAATATQAKKHMVIIDSLNYISTEYITRFLSEIASPHCTMVATYHKDIKDENRTVIPDWNNNYPDKLTLLQFMATTIVDIDVVLTGTLDTEEVSELLNEFRIPRGLNNDIFQLRLVNKRKSGRSLEYDFIVNSNTHEYELLSTTKQEEESSSNGLETPEMLQGLTTFNLGTSNKQKLAKDQVALPFLEAQSFGQGGAIVYEYEKDDDYDEEDPYEDPF
B2: Kti12-3HA (HA-tagged Elongator accessory protein Kti12) (natural protein)
chain: MPLVLFTGYPCSGKTTLAKHLVQLLQSKIDATPSLSKYSITYHSDESLGIKHSDYITSQDERKLRSEIISAVKRDLSKNKIVIVDSLNYIKGFRYQLHCEVKNLSTTFCVIQTLCPPETIFEWNKTSNPNPWEPELLNQLIQRYEEPNSSNRWDSPLFAILTPQDNITDYIDDICKVVFQTSKSAKNSGHNDPLSKGLQKPNSATVLKPASQSNFIQVLDIETSKIIKTIMNHIKSLTSIGGVSNGTRVIVSEGITDINDDGCFFVDLPIGNVVTLAQLQRLKRQFINFNKLRDIDQDRIGPLFADYLNKNLN

Tests used:
[1] = biological target: T1, GST-Elp1 CTD (Saccharomyces cerevisiae); assay: EMSA; settings: native tRNA modifications; 5' phosphate removed, then 5' 32P-labelled; 20 mM Tris-HCl pH 7.5, 150 mM NaCl, 2 mM MgCl2, 8% glycerol, 10 U Ribolock; 45 min at room temperature; 1.5% native agarose gel in 0.5x TBE
[2] = biological target: Elp1–KR9A–GFP (GFP-tagged Elp1 basic region mutant, nine basic residues to alanine) (S. cerevisiae) (UniProt Q06706); assay: co-IP; GFP–Trap beads precipitate the GFP-tagged protein from yeast lysate; HA-tagged partners found by anti-HA blot and measured by densitometry; lysis buffer 50 mM HEPES-KOH pH 7.5, 150 mM NaCl, 2 mM MgCl2, 0.1% Triton X-100; 4°C

Molecule	Kd [1]	percent less co-precipitated than with wild-type Elp1–GFP (densitometry) [2]
total yeast tRNA (Sigma R9001)	550 nM	
B1		30%
B2		40%

Source: article PMC4150532
